The text below walks through data of patent US20180155451A1 (published 2018).

The term Kd denotes the equilibrium constant for the complex coming apart. Low values mean a tighter complex, high ones a looser complex.

The target of assay [1] is T1, FcγRIIa R type extracellular domain with C-terminal His tag (human, UniProt P12318 34-217).
T1 construct: extracellular domain; also called FcgRIIa R; FcgRIIaR; not shown: His tag at the C terminus
T1 sequence (looked up): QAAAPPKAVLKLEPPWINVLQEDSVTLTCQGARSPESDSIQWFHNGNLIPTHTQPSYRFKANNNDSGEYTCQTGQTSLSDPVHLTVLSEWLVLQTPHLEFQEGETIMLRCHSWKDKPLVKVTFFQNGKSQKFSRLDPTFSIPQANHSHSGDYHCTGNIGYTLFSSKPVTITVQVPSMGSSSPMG
The assay is described as follows: SPR (Biacore), antibody captured on chip, soluble FcgR as analyte; experiment 1 (second row of this antibody). As for the experimental part: (§1) Antibodies of interest were analyzed for the interaction to FcgR according to the method described in Reference Example 8.
(§2) Analysis of interaction between obj ective antibody and the FcγR was carried out using Biacore T100 (GE Healthcare), Biacore T200, Biacore A100, and Biacore 4000. HBS-EP+ (GE Healthcare) was used as the running buffer, and the measurement temperature was set to 25° C. Chips produced by immobilizing the antigen peptide by the amine coupling method to a Series S sensor Chip CM5 (GE Healthcare), chips produced by allowing preliminarily biotinylated antigen peptides to interact with and immobilize onto a Series S Sensor Chip SA (certified) (GE Healthcare), chips produced by immobilizing Protein L (ACTIGEN, BioVision) to Series S Sencor Chip CM5 (GE Healthcare), or chips produced by immobilizing Protein A/G (Thermo Scientific) to Series S Sencor Chip CM5 (GE Healthcare) were used. Antibodies of interest were captured onto these chips, and allowed to interact to each FcγR diluted with running buffer. To regenerate and repeatedly use the chip, the antibodies captured onto the chip were washed off by reacting 10 mM glycine-HCl, pH 1.5.
(In general: In SPR one partner is held on a chip, and binding of the other changes the refractive index at the surface.)

The target in assay [2] is T2, FcγRIa extracellular domain with C-terminal His tag (human, UniProt P12314 16-292).
T2 construct: extracellular domain; also called FcgRI; FcgRIa; not shown: His tag at the C terminus
T2 sequence (P12314 16-292): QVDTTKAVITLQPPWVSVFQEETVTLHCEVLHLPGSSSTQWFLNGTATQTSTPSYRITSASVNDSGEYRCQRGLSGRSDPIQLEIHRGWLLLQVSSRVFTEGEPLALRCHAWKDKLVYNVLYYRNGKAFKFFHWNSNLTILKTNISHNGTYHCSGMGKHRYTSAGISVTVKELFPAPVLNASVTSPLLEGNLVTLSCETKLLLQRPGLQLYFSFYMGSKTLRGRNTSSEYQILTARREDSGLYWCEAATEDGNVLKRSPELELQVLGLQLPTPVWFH
Described as above. As to the method: as §1, §2

The target in assay [3] is T3, FcγRIIb extracellular domain with C-terminal His tag (human, UniProt P31994 43-217).
T3 construct: extracellular domain; also called FcgRIIb; 2b; not shown: His tag at the C terminus
T3 sequence (looked up): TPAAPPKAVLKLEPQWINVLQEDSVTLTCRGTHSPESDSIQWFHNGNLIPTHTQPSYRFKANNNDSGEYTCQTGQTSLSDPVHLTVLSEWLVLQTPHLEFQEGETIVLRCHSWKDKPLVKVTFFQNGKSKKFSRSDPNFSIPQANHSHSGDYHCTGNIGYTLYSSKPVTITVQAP
The assay is described as above. As to the method:
as §1, §2

In assay [4] the target is T4, FcγRIIa H type extracellular domain with C-terminal His tag (human, UniProt P12318 34-217).
T4 construct: extracellular domain; also called FcgRIIa H; FcgRIIaH; not shown: His tag at the C terminus
T4 sequence (looked up): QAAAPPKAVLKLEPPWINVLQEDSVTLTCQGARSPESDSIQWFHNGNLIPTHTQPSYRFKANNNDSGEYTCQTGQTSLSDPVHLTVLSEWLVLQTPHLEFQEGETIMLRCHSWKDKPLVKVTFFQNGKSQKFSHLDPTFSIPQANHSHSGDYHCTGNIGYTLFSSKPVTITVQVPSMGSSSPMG
The assay is described as above. As for the experimental part: as §1, §2

Assay [5] concerns the target T5, FcγRIIIa V type extracellular domain with C-terminal His tag (human, UniProt P08637 17-208).
T5 construct: extracellular domain; also called FcgRIIIa V; FcgRIIIaV; not shown: His tag at the C terminus
Described as above. As for the experimental part: as §1, §2

Assay [6] addresses T6, FcγRIIIa F type extracellular domain with C-terminal His tag (human, UniProt P08637 17-208).
T6 construct: extracellular domain; also called FcgRIIIa F; FcgRIIIaF; not shown: His tag at the C terminus
The assay is described as above. As for the experimental part: as §1, §2

In assay [7] the target is T1, FcγRIIa R type extracellular domain …. The assay can be described thus: SPR (Biacore), antibody captured on chip, soluble FcgR as analyte; experiment 1. As for the experimental part:
as §1, §2

Assay [8] concerns the target T2, FcγRIa extracellular domain with …. The description is as above. As to the method:
as §1, §2

The target of assay [9] is T3, FcγRIIb extracellular domain with …. The description is as above. As to the method:
as §1, §2

In assay [10] the target is T4, FcγRIIa H type extracellular domain …. Described as above. As for the experimental part:
as §1, §2

In assay [11] the target is T5, FcγRIIIa V type extracellular domain …. The description is as above. As for the experimental part:
as §1, §2

Assay [12] concerns the target T6, FcγRIIIa F type extracellular domain …. The description is as above. As for the experimental part:
as §1, §2

T6 sequence (P08637 17-208): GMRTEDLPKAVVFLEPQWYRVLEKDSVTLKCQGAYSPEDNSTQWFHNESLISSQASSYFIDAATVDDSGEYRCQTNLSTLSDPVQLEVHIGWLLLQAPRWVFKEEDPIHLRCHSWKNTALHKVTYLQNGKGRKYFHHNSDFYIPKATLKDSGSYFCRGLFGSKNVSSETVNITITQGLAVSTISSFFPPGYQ
T5 sequence (P08637 17-208 F176V): as the sequence (P08637 17-208) above, with F160V counted along it

B1: H240-FA030/H240-FB059/L73-k0 (antibody, human IgG1, kappa)
heavy 1: QDQLVQSGAEVKKPGASVKVSCKASGFNIKDTYIQWVRQAPGQGLEWMGRIDPLRKQTKYREKFEGRVTITADTSTNTAYMELSSLRSEDTAVYYCVRSGREFDYWGQGTLVTVSSASTKGPSVFPLAPSSKSTSGGTAALGCLVKDYFPEPVTVSWNSGALTSGVHTFPAVLQSSGLYSLSSVVTVPSSSLGTKTYTCNVNHKPSNTKVDKKVEPKSCDKTHTCPPCPAPEYYWGPSVFLFPPKPKDTLMISRTPEVTCVVVDVSDEEPKVKFNWYVDGVEVHNAKTKPREEQYNATYRVVSVLTVLHQDWLNGKEYKCKVSNKALPAPIEKTISKAKGQPREPQVYTLPPSRKEMTKNQVSLTCLVKGFYPSDIAVEWESNGQPENNYKTTPPVLDSDGSFFLYSKLTVDKSRWQQGNVFSCSVMHEALHNRYTQKSLSLSP
heavy 2: QDQLVQSGAEVKKPGASVKVSCKASGFNIKDTYIQWVRQAPGQGLEWMGRIDPLRKQTKYREKFEGRVTITADTSTNTAYMELSSLRSEDTAVYYCVRSGREFDYWGQGTLVTVSSASTKGPSVFPLAPSSKSTSGETAALGCLVEDYFPEPVTVSWNSGALTSGVHTFPAVLQSSGLYSLSSVVTVPSSSLGTQTYICNVNHKPSNTKVDKKVEPKSCDKTHTCPPCPAPELLGGPSVFLFPPKPKDTLMISRTPEVTCVVVDVSHEEPEVQFNWYVDGVEVHNAETKPREEQYNSTYRVVSVLTVLHQDWLNGKEYKCKVSNDALPMPIEETISKAKGQPREPQVYTLPPSREEMTKNQVSLTCLVKGFYPSDIAVEWESNGQPENNYKTTPPVLDSDGSFFLYSKLTVDKSRWQQGNVFSCSVMHEALHNHYTQESLSLSP
light: DIQMTQSPSSLSASVGDRVTITCRASQDIHKYIAWYQQKPGQAPRLLIQYTSTLQPGVPSRFSGSGSGTDYTFTISSLQPEDIATYYCLQYEQLRTFGGGTKVEIKRTVAAPSVFIFPPSDEQLKSGTASVVCLLNNFYPREAKVQWKVDNALQSGNSQESVTEQDSKDSTYSLSSTLTLSKADYEKHKVYACEVTHQGLSSPVTKSFNRGEC
notes: Heterodimerized anti-EREG IgG1 antibody; A chain altered from H240-AK072, B chain altered from H240-BH076
Consider B1, for which the dissociation constant (Kd) in assay [1] came to 260 nM; in assay [2], 0.082 nM; in assay [3], 1500 nM; in assay [4], 85 nM; in assay [5], 1.2 nM; in [6], 3.9 nM. Further, the dissociation constant (Kd) was 250 nM in [7]; 0.12 nM in assay [8]; 1500 nM in assay [9]; 85 nM in assay [10]; 1.4 nM in [11]; 4.8 nM in assay [12].
